# Reference: the supplement of paper PMC10567573
# B1: TOR1AIP2 (parent)
# chain: SPGHSSAGQEGEDTLRRRLLAPEA
# Variants of: B1
# Assay: protein stability index of a GFP-peptide fusion (GPS, HEK-293T) (PSI 1-6); higher = more stable
# Details: c terminus: a fixed tail appended
# 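Further: lentivirally expressed fusions sorted by FACS into six bins by GFP to DsRed ratio, PSI derived from sequencing read proportions per bin multiplied by bin number.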
row,Variant,protein stability index
1,SPGHSSAGQEGEMTLRRRLLAPEA [D13M],3.06
2,SPGHSSAGQEGENTLRRRLLAPEA [D13N],4.27
3,SPGHSSAGQEGEYTLRRRLLAPEA [D13Y],2.8
4,SPGHSSAGQEGERTLRRRLLAPEA [D13R],3.32
5,SPGHSSAGQEGEETLRRRLLAPEA [D13E],4.73
6,SPGHSSAGQEGEWTLRRRLLAPEA [D13W],2.96
7,SPGHSSAGQEGEQTLRRRLLAPEA [D13Q],4.09
8,SPGHSSAGQEGEITLRRRLLAPEA [D13I],3.88
9,SPGHSSAGQEGEHTLRRRLLAPEA [D13H],4.31
10,SPGHSSAGQEGEPTLRRRLLAPEA [D13P],4.53
11,SPGHSSAGQEGEGTLRRRLLAPEA [D13G],4.1
12,SPGHSSAGQEGEKTLRRRLLAPEA [D13K],4.52
13,SPGHSSAGQEGEFTLRRRLLAPEA [D13F],3.02
14,SPGHSSAGQEGETTLRRRLLAPEA [D13T],3.65
15,SPGHSSAGQEGELTLRRRLLAPEA [D13L],3.77
16,SPGHSSAGQEGEATLRRRLLAPEA [D13A],3.19
17,SPGHSSAGQEGESTLRRRLLAPEA [D13S],3.67
18,SPGHSSAGQEGECTLRRRLLAPEA [D13C],4.05
19,SPGHSSAGKEGEDTLRRRLLAPEA [Q9K],4.02
20,SPGHSSAGPEGEDTLRRRLLAPEA [Q9P],4.53
21,SPGHSSAGYEGEDTLRRRLLAPEA [Q9Y],3.68
22,SPGHSSAGLEGEDTLRRRLLAPEA [Q9L],3.58
23,SPGHSSAGNEGEDTLRRRLLAPEA [Q9N],4.05
24,SPGHSSAGVEGEDTLRRRLLAPEA [Q9V],3.98

row,Variant,protein stability index
1,SPGHSSAGCEGEDTLRRRLLAPEA [Q9C],3.22
2,SPGHSSAGREGEDTLRRRLLAPEA [Q9R],3.5
3,SPGHSSAGSEGEDTLRRRLLAPEA [Q9S],4.24
4,SPGHSSAGWEGEDTLRRRLLAPEA [Q9W],3.04
5,SPGHSSAGDEGEDTLRRRLLAPEA [Q9D],3.84
6,SPGHSSAGFEGEDTLRRRLLAPEA [Q9F],4.11
7,SPGHSSAGAEGEDTLRRRLLAPEA [Q9A],4.35
8,SPGHSSAGTEGEDTLRRRLLAPEA [Q9T],3.96
9,SPGHSSAGHEGEDTLRRRLLAPEA [Q9H],3.83
10,SPGHSSAGEEGEDTLRRRLLAPEA [Q9E],4.31
11,SPGHSSAGMEGEDTLRRRLLAPEA [Q9M],3.43
12,SPGHSSAGIEGEDTLRRRLLAPEA [Q9I],4.08
13,SPGHSSAGGEGEDTLRRRLLAPEA [Q9G],2.94
14,SPGHSSAGQEGEDTLRPRLLAPEA [R17P],5.04
15,SPGHSSAGQEGEDTLRDRLLAPEA [R17D],5.46
16,SPGHSSAGQEGEDTLRGRLLAPEA [R17G],5
17,SPGHSSAGQEGEDTLRQRLLAPEA [R17Q],4.37
18,SPGHSSAGQEGEDTLRKRLLAPEA [R17K],4.76
19,SPGHSSAGQEGEDTLRMRLLAPEA [R17M],3.54
20,SPGHSSAGQEGEDTLRCRLLAPEA [R17C],4.51
21,SPGHSSAGQEGEDTLRTRLLAPEA [R17T],4.58
22,SPGHSSAGQEGEDTLRVRLLAPEA [R17V],3.9
23,SPGHSSAGQEGEDTLRSRLLAPEA [R17S],4.71
24,SPGHSSAGQEGEDTLRLRLLAPEA [R17L],3.31

row,Variant,protein stability index
1,SPGHSSAGQEGEDTLRFRLLAPEA [R17F],2.09
2,SPGHSSAGQEGEDTLRNRLLAPEA [R17N],4.67
3,SPGHSSAGQEGEDTLRERLLAPEA [R17E],4.42
4,SPGHSSAGQEGEDTLRIRLLAPEA [R17I],3.81
5,SPGHSSAGQEGEDTLRYRLLAPEA [R17Y],2.48
6,SPGHSSAGQEGEDTLRHRLLAPEA [R17H],3.85
7,SPGHSSAGQEGEDTLRARLLAPEA [R17A],4.63
8,SPGHSSAGQEGEDTLRWRLLAPEA [R17W],2.36
9,SPGHSSAGQEGEDTLNRRLLAPEA [R16N],5.23
10,SPGHSSAGQEGEDTLDRRLLAPEA [R16D],5.68
11,SPGHSSAGQEGEDTLMRRLLAPEA [R16M],4.6
12,SPGHSSAGQEGEDTLLRRLLAPEA [R16L],4.61
13,SPGHSSAGQEGEDTLCRRLLAPEA [R16C],5.14
14,SPGHSSAGQEGEDTLGRRLLAPEA [R16G],5.41
15,SPGHSSAGQEGEDTLQRRLLAPEA [R16Q],5.34
16,SPGHSSAGQEGEDTLSRRLLAPEA [R16S],5.63
17,SPGHSSAGQEGEDTLYRRLLAPEA [R16Y],4.44
18,SPGHSSAGQEGEDTLWRRLLAPEA [R16W],3.52
19,SPGHSSAGQEGEDTLPRRLLAPEA [R16P],4.9
20,SPGHSSAGQEGEDTLHRRLLAPEA [R16H],5.38
21,SPGHSSAGQEGEDTLFRRLLAPEA [R16F],4.71
22,SPGHSSAGQEGEDTLTRRLLAPEA [R16T],5.04
23,SPGHSSAGQEGEDTLARRLLAPEA [R16A],5.37
24,SPGHSSAGQEGEDTLIRRLLAPEA [R16I],5.06

row,Variant,protein stability index
1,SPGHSSAGQEGEDTLERRLLAPEA [R16E],5.46
2,SPGHSSAGQEGEDTLVRRLLAPEA [R16V],5.51
3,SPGHSSAGQEGEDTLKRRLLAPEA [R16K],4.79
4,SPGHSSAGQEGEDCLRRRLLAPEA [T14C],2.67
5,SPGHSSAGQEGEDVLRRRLLAPEA [T14V],3.97
6,SPGHSSAGQEGEDELRRRLLAPEA [T14E],4.4
7,SPGHSSAGQEGEDALRRRLLAPEA [T14A],4.06
8,SPGHSSAGQEGEDDLRRRLLAPEA [T14D],4.18
9,SPGHSSAGQEGEDFLRRRLLAPEA [T14F],4.39
10,SPGHSSAGQEGEDGLRRRLLAPEA [T14G],4.41
11,SPGHSSAGQEGEDNLRRRLLAPEA [T14N],3.63
12,SPGHSSAGQEGEDKLRRRLLAPEA [T14K],4.94
13,SPGHSSAGQEGEDLLRRRLLAPEA [T14L],4.84
14,SPGHSSAGQEGEDWLRRRLLAPEA [T14W],4.5
15,SPGHSSAGQEGEDILRRRLLAPEA [T14I],4.42
16,SPGHSSAGQEGEDYLRRRLLAPEA [T14Y],4.2
17,SPGHSSAGQEGEDHLRRRLLAPEA [T14H],4.33
18,SPGHSSAGQEGEDMLRRRLLAPEA [T14M],4.34
19,SPGHSSAGQEGEDRLRRRLLAPEA [T14R],4.65
20,SPGHSSAGQEGEDSLRRRLLAPEA [T14S],3.08
21,SPGHSSAGQEGEDQLRRRLLAPEA [T14Q],4.11
22,SPGHSSAGQEGEDPLRRRLLAPEA [T14P],4.33
